Read-outs that look alike come from different tables or passages of the source. Peptide text beside a SMILES is read from it.
Columns and labels:
[1] = molecular target: T1, human ORL1 receptor (human, UniProt P41146 1-370); test: cell-based or functional assay
[2] = system: mouse vas deferens; test: Mouse vas deferens assay: inhibition of electrically-induced contraction; conditions: cumulative addition; data not shown
From the text: The compounds of the present invention are pharmacologically active, e.g. as nociceptin agonists or partial agonists, and a useful method of showing activity is described by Hughes J., Kosterlitz H. W., Leslie F. M.: Effect of morphine on adrenergic transmission in the mouse vas deferens. Assessment of agonist and antagonist potencies of narcotic analgesics^[4]. The isolated electrically stimulated mouse vas deferens preparation has been widely used to evaluate the functional pharmacological actions of opioid agonists and antagonists in vitro^[5].
(§1) The vas deferens from male NMRI albino mice weighing 30-40 g were placed in a SCHULER organ bath Type 809, Hugo Sachs Elektronik, Germany, and perfused with a 37° C., modified Krebs solution (NaCl 6,9 g/L, KCl 0.35 g/L, KH2PO4 0.16 g/L, NaHCO3 2.1 g/L, Glucose H2O 2.0 g/L, CaCl2 2.52 mL/L). The solution was gassed with carbogen (95% O2 and 5% CO2) throughout the experiment. The tissue was electrically stimulated through two silver electrodes directly in the organ bath using a HSE Stimulator I Type 215. Stimulation of the tissue was performed by applying a supramaximal voltage (15 Volts) in trains of 10 square pulses every 60 s, each of 1 ms duration with a frequency of […]. Concentration-response curves were performed by adding test substances that relax mouse vas deferens smooth muscles cumulatively to the organ baths. The test substances used in the assay were nociceptin in an isotonic saline solution, Compound 1 (as the trifluoroacetate in an isotonic saline solution), Compound 2 (as the trifluoroacetate in an isotonic saline solution), and the hexapeptide Ac-RYYRWK-NH2 (SEQ ID NO: 1) (as the trifluoroacetate in an isotonic saline solution).

[3] = system: nociceptin-induced smooth muscle relaxation in mouse vas deferens; test: Mouse vas deferens assay: antagonism of nociceptin-induced relaxation (Schild pA2); conditions: Schild equation; antagonism of nociceptin-induced relaxation; n = 4
Protocol: as §1
The effects of Ac-RYYRWK-NH2 (SEQ ID NO: 1) and Compound 1 on nociceptin-induced relaxation in the mouse vas deferens assay were also tested. […] Using the Schild equation ^[7], the pA2 values which indicates affinity of a compound as an antagonist were calculated.

[4] = In vitro stability in heparin stabilised mouse plasma; format: in vitro ADME; conditions: heparinised mouse plasma, 37° C., read-out: half-life t½ of degradation
Protocol: Degradation of peptides is almost exclusively seen in the presence of enzymes, e.g. in the bloodstream. An important feature of a putative drug is whether it is quickly degraded in vivo or whether it is able to conduct its effects over a longer period of time. To be able to examine the stability of the peptide conjugates of the present invention degradation was tested in heparin stabilised mouse plasma (obtained from Harlan Seralab, UK).
The stability studies were run in triplicate. 100 μL of a 1 mg/mL solution of the test compound (peptide conjugate) was added to an Eppendorf tube, containing 900 μL plasma, incubated at 37° C. Immediately after addition, a sample of 100 μL was removed and added to an Eppendorf tube, containing 10 μL of extraction solution (50% TFA (trifluoroacetic acid) in MeCN, v/v). This sample constitutes t=0. […] The samples are centrifuged at 20,000×g, and the supernatant was transferred to vials and analysed by high-performance liquid chromatography (HPLC).
The analysis was performed on a HP1100 HPLC with a quaternary pump. The column used was a Vydac 201SP5215, and the apparatus comprises an autosampler, a column oven, a variable UV detector and a fluorescence detector. […] These values were transferred to Microsoft Excel, where half-lives (t½) and rate constant (kobs) for Ac-RYYRWK-NH2 (SEQ ID NO: 1) and Compound 1 were determined by fitting to the equation.

[5] = In vitro stability in heparinised human plasma; format: in vitro ADME
Protocol: In addition, the degradation of Compound 1 of the invention has been studied in heparinised human plama.
The stability of peptides is analysed in human plasma. The peptides are incubated at 37° C. in plasma and samples taken at approx. 8 regular intervals between t=0 and t=390 min for Compound 1 and nociceptin-NH2, and at 9 intervals between t=0 and t=32 min for Compound CE1 are analysed by HPLC. […] This is done by subsequent injections of the drug, plasma, and a co-injection with the drug and the plasma, followed by optimisation of the LC method parameters until a satisfactory separation is obtained. Three parallel experiments are performed for each plasma type. 100 μl of peptide is mixed with 900 μl plasma at t=0 and incubated at 37° C. (drug-plasma mixture conc. 0.1 mg/ml). Samples of 100 μl of the drug-plasma mixture are removed at appropriate intervals and the degradation stopped by precipitation of the sample with 10 μl MeCN:TFA 50:50 v/v. A control plasma sample without the drug treated in the same manner is also taken. The plasma samples are centrifuged for 15 min. at 12,000 rpm (Eppendorf centrifuge) at ambient temperature. The resulting supernatant solution is transferred to 300 μl HP autosamler vials and analyzed by HPLC. HPLC analysis are performed as follows:
Ac-RYYRWK-NH2 (SEQ ID NO: 1) and Compound 1
The samples are analysed in the following order: blank, the peptide at 0.1 mg/mL, the plasma without the peptide, the three parallel samples for t=0, the three parallel samples for t=5 min. the three parallel samples for t=60 min. etc. And finally the three parallel samples for t=0 are repeated to make sure that there have been no degradation or other failure during the analyses. The sample concentrations (peak height in mAU) are plotted vs. time and fitted to a function describing a mono exponential decay (Excel). The half-lives of the peptides in plasma are presented in Table 7 as mean (n=3)±standard deviation.

[6] = system: conscious Sprague Dawley rats; format: in vivo, rat
Protocol: In the conscious rat model, the animal is chronically instrumented with catheters in the urinary bladder, the femoral artery, and the femoral vein. The animal receives a continuous i.v. infusion with isotonic saline, 50 μl/min. Urine is collected in vials in consequtive urine collection periods of 10 min each. After two control periods, the test compound is administered and fractionated urine collections (10 min periods) are continued for at least two hours. Urinary concentrations of sodium and potassium are determined by flame photometry (Instrumentation Laboratory 943) using caesium as internal standard.
The diuretic effect of the peptide conjugates of the invention has been tested in conscious rats, where Compound 1 elicits a powerful and sustained diuretic response. Cardiovascular and renal responses produced by i.v. infusion of nociceptin (Phoenix Pharmaceuticals) and Compound 1 have been studied in conscious Sprague Dawley rats. The results are shown in FIGS. 2 to 8 wherein HR is heart rate, MAP is mean arterial pressure, V is urine flow rate, UNaV is urinary excretion rate of sodium, RSNA is renal sympathetic nerve activity expressed as % of the control level, Cosm is the osmolar clearance, and CH2O is free water clearance.
Furthermore, the effects of i.v. bolus administration of nociceptin (30 and 100 nmol/kg, Phoenix Pharmaceuticals) and nociceptin-NH2 (30 nmol/kg) on heart rate, arterial pressure and RSNA were studied in groups of 6 conscious Sprague-Dawley rats.
[…] After stabilization of urine flow rate and urinary sodium excretion, urine was collected during a 20-min control period. After this, the i.v. bolus injection was given or the i.v. infusate was switched to a solution of isotonic saline containing Compound 1 (i.v. infusion experiments). From the time of drug administration, experimental urine samples (10-min consecutive periods) were taken for 80 min.
One hour prior to the start of each experiment a food pellet (standard rodent chow) was placed within access to the rat though a hole in the rat holder. The number and time of feeding responses (i.e., times in which the rat began to eat the food pellet) was recorded before, and after drug administration. If a positive feeding response was observed, the pellet was removed from the restrainer to prevent feeding-induced alterations in heart rate and/or mean arterial pressure. At 10-min intervals, the food pellet was presented to the rat to determine the duration of the feeding response.

[7] = molecular target: hORL1 receptor (Homo sapiens, UniProt P41146); test: Binding to human ORL1 receptor expressed in CHO cells; set-up: expressed in transfected cells; host or cells: CHO
Sequence of hORL1 receptor (P41146 whole entry): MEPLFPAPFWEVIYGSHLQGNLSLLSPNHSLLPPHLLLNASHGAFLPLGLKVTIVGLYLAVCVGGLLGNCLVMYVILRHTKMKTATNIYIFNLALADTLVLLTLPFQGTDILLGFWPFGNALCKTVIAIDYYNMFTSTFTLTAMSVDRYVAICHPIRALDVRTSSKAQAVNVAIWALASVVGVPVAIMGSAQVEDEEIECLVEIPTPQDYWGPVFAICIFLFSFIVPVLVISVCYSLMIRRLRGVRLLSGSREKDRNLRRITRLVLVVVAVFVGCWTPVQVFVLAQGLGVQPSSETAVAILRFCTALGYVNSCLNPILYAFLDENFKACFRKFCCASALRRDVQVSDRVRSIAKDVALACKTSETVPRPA

[8] = molecular target: T1, human ORL1 receptor; test: cell-based or functional assay; remark: listed apart in the source
[9] = molecular target: T1, human ORL1 receptor; test: binding to hORL1 receptor expressed in CHO cells, one experiment
[10] = molecular target: T1, human ORL1 receptor; test: displacement of [3H]-labeled nociceptin, HEK293 cells transfected with the human ORL1 receptor
[11] = molecular target: T1, human ORL1 receptor; test: cell-based or functional assay; remark: listed apart in the source

T1 sequence (P41146 whole entry): as above

Molecule	Efficacy EC50 (nM), inhibition of forskolin-induced cAMP formation [8] [nM]	IC50 [9] [nM]	also measured
Compound 8 Ac-D-Arg-D-Tyr-D-Tyr-D-Arg-D-Trp-D-Lys-D-Lys-D-Lys-D-Lys-D-Lys-D-Lys-D-Lys-NH2 (peptide)	–	–	Efficacy EC50 (nM), inhibition of forskolin-induced cAMP formation [1]: 59 nM
Ac-KKKKKKRYYRWK-NH2 [Compound 2]	–	–	potency order for inhibition of electrically-induced contraction of the mouse vas deferens [2]: nociceptin>Compound 1=Compound 2>>Ac-RYYRWK-NH2
Ac-RYYRWK-NH2 [Compound CE1, Ac-Arg-Tyr-Tyr-Arg-Trp-Lys-NH2, reference compound]	–	–	pA2 value [3]: 7.8 (n = 4); half-life at 0.1 mg/mL [4]: 2 to 5 min; half-life at 0.1 mg/ml ([5]; 37° C., mean (n=3) +/− deviation, read-out: T1/2 in min (degradation in human heparinised plasma)): 50.7 min; half-life at 0.1 mg/ml ([5]; read-out: half life in plasma): < 60 min; potency order for inhibition of electrically-induced contraction of the mouse vas deferens [2]: nociceptin>Compound 1=Compound 2>>Ac-RYYRWK-NH2
CC(C)C[C@H](NC(=O)[C@H](CCCCN)NC(=O)[C@H](CCCN=C(N)N)NC(=O)[C@H](C)NC(=O)[C@H](CO)NC(=O)[C@H](CCCCN)NC(=O)[C@H](CCCN=C(N)N)NC(=O)[C@H](C)NC(=O)CNC(=O)[C@@H](NC(=O)[C@H](Cc1ccccc1)NC(=O)CNC(=O)CNC(=O)[C@@H](N)Cc1ccccc1)[C@@H](C)O)C(=O)N[C@@H](C)C(=O)N[C@@H](CC(N)=O)C(=O)N[C@@H](CCC(N)=O)C(=O)O [nociceptin, reference compound]	–	–	heart rate, arterial pressure and RSNA ([6]; i.v. bolus 30 and 100 nmol/kg, data not shown): rapid bradycardia, a hypotensive response and initial RSNA suppression; MAP response ([6]; i.v. infusion 11 nmol/kg/min, FIG. 2): significantly decreases MAP
CC(=O)N[C@H](CCCCN)C(=O)N[C@H](CCCCN)C(=O)N[C@H](CCCCN)C(=O)N[C@H](CCCCN)C(=O)N[C@H](CCCCN)C(=O)N[C@H](CCCCN)C(=O)N[C@H](CCCCN)C(=O)N[C@H](Cc1c[nH]c2ccccc12)C(=O)N[C@H](CCCNC(=N)N)C(=O)N[C@H](Cc1ccc(O)cc1)C(=O)N[C@H](Cc1ccc(O)cc1)C(=O)N[C@H](CCCNC(=N)N)C(N)=O [Compound 7, Ac-KKKKKKKWRYYR-NH2 (all D)] (HELM PEPTIDE1{[ac].[dK].[dK].[dK].[dK].[dK].[dK].[dK].[dW].[dR].[dY].[dY].[dR].[am]}$$$$V2.0)	–	–	IC50 [7]: > 100 nM
Ac-RYYRWK-NH2 (Unconjugated comparison hexapeptide; also called Ac-RYYRWK-NH2) [Compound CE1 Ac-Arg-Tyr-Tyr-Arg-Trp-Lys-NH2]	0.41	0.31	–
Ac-RYYRWKKKKKKK-NH2 (also: trifluoroacetate salt, Synthetic peptide conjugate; the primary product is the trifluoroacetate salt; also called Compound I) [Compound 1 Ac-Arg-Tyr-Tyr-Arg-Trp-Lys-Lys-Lys-Lys-Lys-Lys-Lys-NH2]	0.58	0.32	Ki [10]: 0.26 nM; inhibition of forskoline-induced formation of cAMP, EC50 [11]: 0.54 nM; inhibition of forskoline-induced formation of cAMP, relative maximum relative to nociceptin [11]: 92%
Ac-RYYRIKKKKKKK-NH2 [Compound 10 Ac-Arg-Tyr-Tyr-Arg-Ile-Lys-Lys-Lys-Lys-Lys-Lys-Lys-NH2]	–	0.51	–
Ac-KYYRWKKKKKKK-NH2 [Compound 9 Ac-Lys-Tyr-Tyr-Arg-Trp-Lys-Lys-Lys-Lys-Lys-Lys-Lys-NH2]	0.035	3.7	–
Ac-RYYRWKAKKKKK-NH2 [Compound 11 Ac-Arg-Tyr-Tyr-Arg-Trp-Lys-Ala-Lys-Lys-Lys-Lys-Lys-NH2]	–	0.27	–
Ac-KKKKKKKWRYYR-NH2 [Compound 6 Ac-Lys-Lys-Lys-Lys-Lys-Lys-Lys-Trp-Arg-Tyr-Tyr-Arg-NH2]	135	115	–
Ac-RYYRWKKKKKK-NH2 [Compound 12 Ac-Arg-Tyr-Tyr-Arg-Trp-Lys-Lys-Lys-Lys-Lys-Lys-NH2]	–	0.15	–
H-NEEEEERYYRWKKKKKKK-NH2 [Compound 3 H-Asn-Glu-Glu-Glu-Glu-Glu-Arg-Tyr-Tyr-Arg-Trp-Lys-Lys-Lys-Lys-Lys-Lys-Lys-NH2]	83	235	–
Ac-RYNRWKKKKKKK-NH2 [Compound 4 Ac-Arg-Tyr-Asn-Arg-Trp-Lys-Lys-Lys-Lys-Lys-Lys-Lys-NH2]	91	–	–
